From the supplement of paper PMC12042874
± gives the uncertainty stated by the source.

assay: amyloid nucleation score (Sup35N fusion, yeast selection) (log enrichment); library NNK3; higher = more nucleation; inactive = no reads after selection
Summary of the method: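 In psi-negative yeast, Sup35N fusions carrying peptides of 20 random codons were induced with 100 μM copper sulfate for 24 hours. The cells then grew 7 days at 30°C on medium lacking adenine and uracil, and plasmid inserts from input and output were Illumina-sequenced, excluding sequences with under 100 input reads. Nucleation score is the DiMSum log enrichment of output over input reads, centred on the mode score of non-aggregating sequences.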

Row | Substance | amyloid nucleation score
1 | RCTVSTSGSGGFCPVPRSGM | inactive
2 | RDEYYRDRLGIVNLSRCSKS | inactive
3 | RDGSM | inactive
4 | RDHWNELGRDYGWTLCKKAY | inactive
5 | RDRQFSSSDVPGCEVTGRTD | 1.04 ± 0.12
6 | RDSLFSV | inactive
7 | RDVFINPTTGQALNVWACCR | inactive
8 | RDWKEDLFFF | inactive
9 | RDWLIMSLGVVLVWFLRYQY | inactive
10 | RDYYGVLLNLCLHHFWLHW | inactive
11 | REASCGIDRMIRRCTERLSC | inactive
12 | RECDFFLWAYYLVNIQLRVQ | -0.27 ± 0.66
13 | REEAVWQADFVYLTKSAILN | inactive
14 | REWCLEVYHWYITRSHVYWC | inactive
15 | REYPYDMYSHLSLFDARHPG | inactive
16 | RFACFSRGACFCNRLVMPYD | inactive
17 | RFAPFMRGM | -0.784 ± 1.5
18 | RFFVNL | inactive
19 | RFIEKTSKIMSPDAYPSLKY | inactive
20 | RFKCSTNGCRTFRGHHYNVK | inactive
21 | RFMSCMGFPHRCHGSSRYVG | inactive
22 | RFTSVILNTSDLSKLRMGTE | 0.437 ± 0.31
23 | RGESHVCLCYL | 0.761 ± 0.17
24 | RGGRYDFMCDTCSLIVFASV | -0.645 ± 1.1

Row | Substance | amyloid nucleation score
25 | RGIDYSHTL | inactive
26 | RGIEVMDLTLARAHKRA | inactive
27 | RGNDLIVCCGDRMCFCNALS | inactive
28 | RGQFICRCGVARPV | inactive
29 | RGQRVSSVMRRTQVGDWNTP | inactive
30 | RGSGILRVLTKSRWCICMGT | inactive
31 | RGVIPLNSKCKL | inactive
32 | RGYGAAHQRRCQRIRNYYKY | inactive
33 | RGYSANWNLMVAVTCGTIH | -0.422 ± 0.71
34 | RHQHKRGAV | -0.982 ± 1.4
35 | RHRIRWSMRRNWSACVQ | inactive
36 | RHWDVLK | inactive
37 | RHWTGCSNQESRTGCGACCI | inactive
38 | RIFWHQCGYGSIRLWGQLDR | -0.531 ± 0.83
39 | RIFYKVDTDGIIIIVYS | inactive
40 | RIGAPKRRSRTWKNPAWTGQ | inactive
41 | RIKFNHTAFNWFQIF | 1.69 ± 0.091
42 | RIKYS | inactive
43 | RILERVATQWRYGRCPMCDR | inactive
44 | RILHFTICPNQWTRYKVDS | inactive
45 | RINWTMMCKTFLRFINKS | inactive
46 | RIPKDEYTNPGRA | inactive
47 | RIRALLD | inactive
48 | RISLCVHFILFCFPSSRQSL | 0.815 ± 0.12

Row | Substance | amyloid nucleation score
49 | RISYMSGDYRPSKCACVYAE | inactive
50 | RIYGHVLSRDANFVRLWVGT | inactive
51 | RKACYLLVI | inactive
52 | RKCCGVLSLSASLHDRDDGC | inactive
53 | RKGSVKEFRYNMSNLESVCS | inactive
54 | RKIHLLGHWLFRSMYRRRFW | inactive
55 | RKIHVAMVLRIEYSMYGSPA | inactive
56 | RKLFGSHS | inactive
57 | RKLGPSHQWNHRWGFSVRSC | inactive
58 | RKNSDLTYSNSVNLTCACRT | 0.434 ± 0.18
59 | RKVNHFNE | inactive
60 | RKWSNR | inactive
61 | RLCHRWFLDRLTICY | inactive
62 | RLCNHKILDPACVLTSQVPI | inactive
63 | RLDVFYEMLIMYKEQYGMVR | inactive
64 | RLFLTVHPTDSILENEAV | inactive
65 | RLFMDLYVFTTRVFNIFQFV | inactive
66 | RLGRSLRLIVMITG | inactive
67 | RLITNNVTS | inactive
68 | RLIWVDLALMFMFMYFLVRQ | inactive
69 | RLKCHNNMNYSSYDLH | inactive
70 | RLLDGMTSVLC | inactive
71 | RLLHCGRILWGFVNDLMIML | inactive
72 | RLLIMSGNNGLLGPSYNAIV | -0.01 ± 0.78

Row | Substance | amyloid nucleation score
73 | RLLVTLQ | inactive
74 | RLMVL | inactive
75 | RLSGKTPCAK | inactive
76 | RLSLKSFVRFQRLCP | inactive
77 | RLTARLINGMDY | 1.27 ± 0.1
78 | RLTHLLHCYTI | inactive
79 | RLTTNTIVKDSISRFRN | 0.183 ± 0.29
80 | RLVRIW | inactive
81 | RLVVNQHSPDKP | inactive
82 | RLWHLLFLHNRYHVVFNSIL | inactive
83 | RLWWS | -0.186 ± 0.98
84 | RLYYRLQTKQAVWCNHPAPT | inactive
85 | RMFNDSLNRV | inactive
86 | RMILFFVARSSKMGIGTFGF | 0.868 ± 0.21
87 | RMLDG | inactive
88 | RMMCARIFRVSWLSSCLEGG | inactive
89 | RMNMCMWLAWDSPWYIMGY | inactive
90 | RMPAFLCGYC | inactive
91 | RMRKSFLFVWIDFILKR | inactive
92 | RMRLSWVMHSV | inactive
93 | RMTVKQMLYHDWCTVRPSYC | inactive
94 | RMVDFADF | inactive
95 | RNCQRESGTLYNYHVARS | inactive
96 | RNFGYIDSKLWP | inactive

Row | Substance | amyloid nucleation score
97 | RNKHYVGRQSVSDSRVLSIV | inactive
98 | RNKLALVLKLAHSI | inactive
99 | RNKVHRNG | inactive
100 | RNLLRSTLKGYFWYSCNVDV | inactive
101 | RNMEPDASVATV | inactive
102 | RNNSNEKSFLRQSYYHCDCF | 2.73 ± 0.07
103 | RNQFWTWYGVSMLSNRQHGK | inactive
104 | RNRWPLPRYICRFKGFSHVV | inactive
105 | RNSMGVILKVCLGRN | 1.66 ± 0.091
106 | RNSVFLCKGIQVYLVLVIVV | inactive
107 | RNVTRGYYMYFKRMVRHYWG | inactive
108 | RNWLMANS | inactive
109 | RPGYHSVVKHAKRLVEVNR | inactive
110 | RPHRAWALAVRVASDVCQNS | 1.11 ± 0.11
111 | RPKPNRSRTIASQLETKSGW | -0.727 ± 1.1
112 | RPKTTH | inactive
113 | RPRNLSLASYTDSVMRFGLS | inactive
114 | RPYGFKAIVYGQCR | inactive
115 | RPYSNQGGTLITSAVLGLTK | inactive
116 | RQCGVVIKFLMISTLISSIA | inactive
117 | RQILSFWP | inactive
118 | RQLMRSDPAMGTICERY | inactive
119 | RQNVWTLVPLVKFRLSNTQT | inactive
